Measured values reported in patent US20210040187A1 (INSTITUT PASTEUR, published 2021).

Biological target: T1, acetylcholine receptor alpha 7 sub-unit (AchR alpha7) (UniProt P36544 23-502)
T1 construct: whole, on cells
Assay: flow cytometry on AchR alpha7-expressing HEK293 cells, 30 min at 4 C

T1 sequence (P36544 23-502): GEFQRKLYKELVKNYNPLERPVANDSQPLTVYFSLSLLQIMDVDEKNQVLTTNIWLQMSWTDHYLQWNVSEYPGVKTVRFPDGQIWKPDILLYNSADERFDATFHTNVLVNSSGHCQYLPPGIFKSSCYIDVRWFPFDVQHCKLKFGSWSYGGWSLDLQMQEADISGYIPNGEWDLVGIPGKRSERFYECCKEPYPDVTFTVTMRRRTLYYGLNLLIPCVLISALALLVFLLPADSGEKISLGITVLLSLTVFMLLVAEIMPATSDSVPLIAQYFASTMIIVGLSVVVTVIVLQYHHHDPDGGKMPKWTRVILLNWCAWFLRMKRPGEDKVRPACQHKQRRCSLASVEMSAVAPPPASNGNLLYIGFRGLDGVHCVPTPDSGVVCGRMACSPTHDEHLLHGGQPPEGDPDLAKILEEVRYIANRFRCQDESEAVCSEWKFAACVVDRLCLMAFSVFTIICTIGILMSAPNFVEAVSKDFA

B1: VHH2 (MA peptide, VHH A12, StrepTag, NV; lacking the RDP1 sequence) (VHH)
chain: MAEVQLQASGGGLAQPGGSLRLSVTVSGSIDVINNMAWYRQAPGNARELVATITSGFSTNYASSVKGRFTISRDNAKKAVYLQMNSLKPEDTADYYSKVHLIRLGAARAYDYWGQGTQVTVSGGGSAWSHPQFEKAAARRVNRSEPTQHNLRGTGREVSVTPQSGKIISSWEVHGQQTRL
  binding result: no binding (tested: 20 pg)
